Assay [1] has as its target human integrin αvβ8 ectodomain (for structural studies) (Homo sapiens, UniProt P06756;P26012). The assay can be described thus: cryo-EM structure.
Assay [2] has as its target recombinant integrin αvβ3 (R&D Systems) (Homo sapiens (assumed), UniProt P06756;P05106). The assay can be described thus: ELISA. On the technique in general: In an ELISA, binding on a coated surface is turned into a signal by an enzyme label.
In assay [3] the target is recombinant integrin αvβ5 (R&D Systems) (Homo sapiens (assumed), UniProt P06756;P18084). The assay can be described thus: ELISA.
Assay [4] has as its target recombinant integrin αvβ1 (R&D Systems) (Homo sapiens (assumed), UniProt P06756;P05556). Kind of assay: ELISA.

recombinant integrin αvβ1 (R&D Systems), sequence (P06756 31-1048, chain 1 of 2): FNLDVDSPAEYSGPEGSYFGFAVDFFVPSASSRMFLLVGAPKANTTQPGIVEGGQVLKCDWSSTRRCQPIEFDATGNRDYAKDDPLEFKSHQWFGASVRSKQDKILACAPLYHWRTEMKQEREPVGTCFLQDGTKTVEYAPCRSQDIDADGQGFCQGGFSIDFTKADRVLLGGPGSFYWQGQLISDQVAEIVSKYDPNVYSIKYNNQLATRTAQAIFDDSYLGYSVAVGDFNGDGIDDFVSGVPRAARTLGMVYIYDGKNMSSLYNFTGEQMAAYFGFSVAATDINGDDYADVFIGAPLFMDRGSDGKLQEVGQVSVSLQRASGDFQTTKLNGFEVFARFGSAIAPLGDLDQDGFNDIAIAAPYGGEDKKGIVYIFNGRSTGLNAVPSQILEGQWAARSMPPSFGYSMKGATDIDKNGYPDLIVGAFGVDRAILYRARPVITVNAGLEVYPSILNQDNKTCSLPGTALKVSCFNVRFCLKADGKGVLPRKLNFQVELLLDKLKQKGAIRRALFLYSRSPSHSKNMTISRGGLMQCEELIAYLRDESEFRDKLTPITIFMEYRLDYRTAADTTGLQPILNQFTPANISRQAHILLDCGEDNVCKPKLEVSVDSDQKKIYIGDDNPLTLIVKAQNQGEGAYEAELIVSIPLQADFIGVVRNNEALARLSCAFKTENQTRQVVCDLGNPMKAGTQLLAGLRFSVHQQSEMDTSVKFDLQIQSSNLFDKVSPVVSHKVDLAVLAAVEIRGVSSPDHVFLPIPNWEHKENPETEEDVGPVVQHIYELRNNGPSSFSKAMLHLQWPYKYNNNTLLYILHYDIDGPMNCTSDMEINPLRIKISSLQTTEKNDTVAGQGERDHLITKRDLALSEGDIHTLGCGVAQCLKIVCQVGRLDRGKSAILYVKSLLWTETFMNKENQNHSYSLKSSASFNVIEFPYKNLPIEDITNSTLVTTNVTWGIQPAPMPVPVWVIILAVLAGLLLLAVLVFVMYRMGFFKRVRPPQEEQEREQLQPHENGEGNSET
recombinant integrin αvβ1 (R&D Systems), sequence (P05556 21-728, chain 2 of 2): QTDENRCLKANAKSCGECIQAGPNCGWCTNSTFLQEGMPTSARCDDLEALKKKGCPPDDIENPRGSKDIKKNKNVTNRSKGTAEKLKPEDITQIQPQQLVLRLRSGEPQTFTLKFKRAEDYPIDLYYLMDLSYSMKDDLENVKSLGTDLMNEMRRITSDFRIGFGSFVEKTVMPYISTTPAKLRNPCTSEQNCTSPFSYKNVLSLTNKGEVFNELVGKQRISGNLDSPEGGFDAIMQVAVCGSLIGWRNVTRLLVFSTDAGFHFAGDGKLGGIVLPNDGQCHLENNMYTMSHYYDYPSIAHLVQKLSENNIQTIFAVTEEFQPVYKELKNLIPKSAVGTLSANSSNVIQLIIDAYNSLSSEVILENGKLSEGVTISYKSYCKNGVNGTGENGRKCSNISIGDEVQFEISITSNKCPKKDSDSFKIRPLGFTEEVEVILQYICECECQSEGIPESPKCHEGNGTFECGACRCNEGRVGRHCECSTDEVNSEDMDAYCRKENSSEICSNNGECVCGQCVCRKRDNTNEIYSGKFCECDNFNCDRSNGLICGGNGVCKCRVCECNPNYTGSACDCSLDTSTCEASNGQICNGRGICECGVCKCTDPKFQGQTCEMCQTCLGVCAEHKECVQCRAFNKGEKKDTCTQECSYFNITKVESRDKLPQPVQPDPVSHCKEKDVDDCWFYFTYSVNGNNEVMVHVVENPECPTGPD
recombinant integrin αvβ5 (R&D Systems), sequence (P06756 31-1048, chain 1 of 2): as the sequence (P06756 31-1048, chain 1 of 2) above
recombinant integrin αvβ5 (R&D Systems), sequence (P18084 24-719, chain 2 of 2): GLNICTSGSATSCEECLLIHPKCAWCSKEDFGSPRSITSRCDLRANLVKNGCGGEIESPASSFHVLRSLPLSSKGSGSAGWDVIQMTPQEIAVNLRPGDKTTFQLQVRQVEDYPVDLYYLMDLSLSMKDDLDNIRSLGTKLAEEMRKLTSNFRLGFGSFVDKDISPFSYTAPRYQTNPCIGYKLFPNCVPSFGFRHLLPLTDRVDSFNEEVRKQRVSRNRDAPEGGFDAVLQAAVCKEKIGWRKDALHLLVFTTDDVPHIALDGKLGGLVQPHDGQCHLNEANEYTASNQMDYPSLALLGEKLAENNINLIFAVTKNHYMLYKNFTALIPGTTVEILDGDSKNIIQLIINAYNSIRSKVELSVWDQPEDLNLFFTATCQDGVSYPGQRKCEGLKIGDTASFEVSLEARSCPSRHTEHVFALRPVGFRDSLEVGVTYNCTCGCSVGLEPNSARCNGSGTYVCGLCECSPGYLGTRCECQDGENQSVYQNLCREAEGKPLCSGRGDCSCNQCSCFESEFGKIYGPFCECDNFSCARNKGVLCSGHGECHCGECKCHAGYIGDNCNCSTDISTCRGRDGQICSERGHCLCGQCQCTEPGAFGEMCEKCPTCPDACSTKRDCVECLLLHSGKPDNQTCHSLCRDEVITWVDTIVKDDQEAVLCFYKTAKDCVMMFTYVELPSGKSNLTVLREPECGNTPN
recombinant integrin αvβ3 (R&D Systems), sequence (P06756 31-1048, chain 1 of 2): as the sequence (P06756 31-1048, chain 1 of 2) above
recombinant integrin αvβ3 (R&D Systems), sequence (P05106 27-718, chain 2 of 2): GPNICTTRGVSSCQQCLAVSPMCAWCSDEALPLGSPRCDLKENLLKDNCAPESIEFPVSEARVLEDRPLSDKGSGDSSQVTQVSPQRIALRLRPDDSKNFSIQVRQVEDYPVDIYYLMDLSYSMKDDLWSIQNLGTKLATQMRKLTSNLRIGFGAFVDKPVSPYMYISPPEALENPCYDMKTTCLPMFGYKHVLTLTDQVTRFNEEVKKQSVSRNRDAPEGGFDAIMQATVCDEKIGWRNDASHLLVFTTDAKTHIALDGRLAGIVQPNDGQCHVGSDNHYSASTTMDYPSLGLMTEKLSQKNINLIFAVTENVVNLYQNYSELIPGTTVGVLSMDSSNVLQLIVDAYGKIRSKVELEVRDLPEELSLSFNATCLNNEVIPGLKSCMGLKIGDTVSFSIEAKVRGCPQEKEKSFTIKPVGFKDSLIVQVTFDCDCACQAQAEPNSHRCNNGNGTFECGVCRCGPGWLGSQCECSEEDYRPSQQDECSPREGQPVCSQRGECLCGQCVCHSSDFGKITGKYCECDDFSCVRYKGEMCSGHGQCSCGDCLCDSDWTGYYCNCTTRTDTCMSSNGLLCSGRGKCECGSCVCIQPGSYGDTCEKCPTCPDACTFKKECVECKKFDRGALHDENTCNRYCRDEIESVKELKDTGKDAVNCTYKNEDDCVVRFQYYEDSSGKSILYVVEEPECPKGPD
human integrin αvβ8 ectodomain (for structural studies), sequence (P06756 31-992, chain 1 of 2): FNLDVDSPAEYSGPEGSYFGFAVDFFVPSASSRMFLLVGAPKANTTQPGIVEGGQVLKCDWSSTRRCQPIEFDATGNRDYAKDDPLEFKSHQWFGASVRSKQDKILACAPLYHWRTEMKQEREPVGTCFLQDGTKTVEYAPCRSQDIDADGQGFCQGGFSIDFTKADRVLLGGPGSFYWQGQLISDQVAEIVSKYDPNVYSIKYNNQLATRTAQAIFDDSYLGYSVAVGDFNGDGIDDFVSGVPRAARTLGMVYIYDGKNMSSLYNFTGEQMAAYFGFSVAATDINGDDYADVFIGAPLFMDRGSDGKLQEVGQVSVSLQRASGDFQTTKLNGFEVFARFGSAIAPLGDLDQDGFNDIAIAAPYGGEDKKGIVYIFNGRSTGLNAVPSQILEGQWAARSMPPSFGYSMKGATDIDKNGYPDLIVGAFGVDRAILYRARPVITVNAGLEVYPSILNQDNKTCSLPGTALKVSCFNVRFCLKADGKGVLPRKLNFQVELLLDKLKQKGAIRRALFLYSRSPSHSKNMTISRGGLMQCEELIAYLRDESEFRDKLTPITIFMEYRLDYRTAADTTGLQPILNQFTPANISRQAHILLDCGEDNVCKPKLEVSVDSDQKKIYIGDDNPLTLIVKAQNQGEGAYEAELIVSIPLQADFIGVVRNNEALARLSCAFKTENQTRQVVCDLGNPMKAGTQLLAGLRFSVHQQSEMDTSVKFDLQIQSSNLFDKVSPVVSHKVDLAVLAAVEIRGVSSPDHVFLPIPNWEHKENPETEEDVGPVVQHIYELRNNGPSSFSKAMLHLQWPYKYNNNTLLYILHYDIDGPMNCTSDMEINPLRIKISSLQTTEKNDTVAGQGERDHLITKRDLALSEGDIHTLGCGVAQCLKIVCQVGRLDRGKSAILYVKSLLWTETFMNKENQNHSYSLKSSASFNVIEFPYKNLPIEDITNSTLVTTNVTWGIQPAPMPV
human integrin αvβ8 ectodomain (for structural studies), sequence (P26012 43-684, chain 2 of 2): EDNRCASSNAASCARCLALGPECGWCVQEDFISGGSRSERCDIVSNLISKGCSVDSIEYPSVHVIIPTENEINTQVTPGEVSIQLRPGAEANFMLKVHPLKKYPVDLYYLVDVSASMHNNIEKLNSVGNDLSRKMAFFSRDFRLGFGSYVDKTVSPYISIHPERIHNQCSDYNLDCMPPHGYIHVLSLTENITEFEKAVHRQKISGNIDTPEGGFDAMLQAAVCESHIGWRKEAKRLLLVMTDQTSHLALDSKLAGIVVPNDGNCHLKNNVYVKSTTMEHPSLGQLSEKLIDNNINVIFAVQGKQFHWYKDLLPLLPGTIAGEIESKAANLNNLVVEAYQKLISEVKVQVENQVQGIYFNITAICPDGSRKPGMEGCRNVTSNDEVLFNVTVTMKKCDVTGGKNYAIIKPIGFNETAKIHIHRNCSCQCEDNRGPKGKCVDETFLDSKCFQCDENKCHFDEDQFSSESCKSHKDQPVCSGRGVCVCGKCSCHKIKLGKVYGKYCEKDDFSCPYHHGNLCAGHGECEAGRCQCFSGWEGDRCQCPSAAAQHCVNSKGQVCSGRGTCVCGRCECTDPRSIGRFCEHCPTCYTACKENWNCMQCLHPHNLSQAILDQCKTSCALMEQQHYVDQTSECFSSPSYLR

B1: C6-RGD3 Fab (Fab, V domains shown)
VH: QIQLVQSGPELKKPGETVKISCKASGYTFTDYSMHWVKQAPGKGLKWVARINTETGEPTFADDFRGRFAVSLETSASTAYLQINNLKNEDTATYFCAIFYYGRDSWGQGTTLTVSS
VL: DIVMTQSPSSLAVSAGEKVTMSCKSSQSLLGRGDLGRLKKNALAWYQQKPGQSPRLLIYWASTRESGVPDRFTGSGSGTDFTLTISSVQAEDLAVYYCKQSYNLLSFGAGTKLELK
Turning to B1, the binding result in assay [1] is listed as “binds”.

B2: C6-RGD3 antibody (mouse IgG2a) (antibody, V domains shown)
VH: B1 VH
VL: B1 VL
Turning to B2, the binding result in assay [2], in assay [3] and in assay [4] was “no binding” each time.

These data come from article PMC7238552 (Cell, 2020).
